Results taken from patent US20240018502A1.

Target: plasma purified human complement protein C3 (human) (UniProt P01024)
Assay: cell-based or functional assay

Chain of plasma purified human complement protein C3 (human) (P01024 23-667, chain 1 of 2): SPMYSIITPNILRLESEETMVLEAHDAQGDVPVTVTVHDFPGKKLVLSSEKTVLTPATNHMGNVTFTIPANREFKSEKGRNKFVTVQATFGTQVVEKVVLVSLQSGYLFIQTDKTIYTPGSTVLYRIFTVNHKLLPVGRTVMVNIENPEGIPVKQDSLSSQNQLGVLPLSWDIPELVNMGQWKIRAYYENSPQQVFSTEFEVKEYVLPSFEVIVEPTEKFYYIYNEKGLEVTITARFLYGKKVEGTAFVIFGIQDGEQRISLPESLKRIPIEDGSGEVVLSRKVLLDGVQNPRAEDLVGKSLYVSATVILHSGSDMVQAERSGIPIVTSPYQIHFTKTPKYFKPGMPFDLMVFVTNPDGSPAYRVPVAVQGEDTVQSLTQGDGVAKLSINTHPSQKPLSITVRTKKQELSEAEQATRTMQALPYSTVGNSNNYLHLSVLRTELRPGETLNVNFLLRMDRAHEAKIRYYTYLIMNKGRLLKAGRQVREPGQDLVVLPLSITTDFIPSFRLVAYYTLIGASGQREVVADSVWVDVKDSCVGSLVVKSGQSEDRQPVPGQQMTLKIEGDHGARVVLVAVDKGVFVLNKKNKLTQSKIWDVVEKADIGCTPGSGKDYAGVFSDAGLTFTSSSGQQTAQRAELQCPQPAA
Chain of plasma purified human complement protein C3 (human) (P01024 672-1663, chain 2 of 2): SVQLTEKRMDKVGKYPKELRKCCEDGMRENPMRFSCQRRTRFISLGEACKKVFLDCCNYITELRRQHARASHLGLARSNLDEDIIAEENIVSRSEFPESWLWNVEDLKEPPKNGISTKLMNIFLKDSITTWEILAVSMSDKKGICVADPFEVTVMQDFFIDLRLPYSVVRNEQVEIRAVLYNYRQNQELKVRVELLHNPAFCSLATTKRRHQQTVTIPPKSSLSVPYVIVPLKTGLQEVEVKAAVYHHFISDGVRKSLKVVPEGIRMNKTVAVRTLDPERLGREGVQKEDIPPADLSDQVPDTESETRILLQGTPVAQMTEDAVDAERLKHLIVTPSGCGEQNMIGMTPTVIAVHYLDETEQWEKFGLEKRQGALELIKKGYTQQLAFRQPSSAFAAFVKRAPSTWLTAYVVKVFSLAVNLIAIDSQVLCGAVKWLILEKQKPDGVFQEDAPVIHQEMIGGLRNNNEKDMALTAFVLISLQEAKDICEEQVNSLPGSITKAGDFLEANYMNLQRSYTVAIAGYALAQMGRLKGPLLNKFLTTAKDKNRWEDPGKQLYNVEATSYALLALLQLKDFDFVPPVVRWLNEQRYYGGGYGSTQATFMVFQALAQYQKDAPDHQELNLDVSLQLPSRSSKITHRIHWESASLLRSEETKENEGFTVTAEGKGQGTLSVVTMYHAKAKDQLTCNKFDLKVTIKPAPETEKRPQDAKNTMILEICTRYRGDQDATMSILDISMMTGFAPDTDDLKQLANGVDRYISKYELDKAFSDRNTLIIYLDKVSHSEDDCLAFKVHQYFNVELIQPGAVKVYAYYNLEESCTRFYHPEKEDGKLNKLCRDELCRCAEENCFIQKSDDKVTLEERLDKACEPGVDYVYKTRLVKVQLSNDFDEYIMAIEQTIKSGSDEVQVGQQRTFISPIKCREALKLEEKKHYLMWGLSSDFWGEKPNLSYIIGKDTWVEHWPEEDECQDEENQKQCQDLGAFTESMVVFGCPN

Binder	EC50 hC3 cleavage	EC50 of hC3 cleavage
MTSP-1 protease domain F99L/C122S/G151N/Q192T (enzyme) VVGGTDADEGEWPWQVSLHALGQGHICGASLISPNWLVSAAHCYIDDRGFRYSDPTQWTAFLGLHDQSQRSAPGVQERRLKRIISHPFFNDFTLDYDIALLELEKPAEYSSMVRPISLPDASHVFPAGKAIWVTGWGHTQYGGTNALILQKGEIRVINQTTCENLLPQQITPRMMCVGFLSGGVDSCTGDSGGPLSSVEADGRIFQAGVVSWGDGCAQRNKPGVYTRLPLFRDWIKENTGV	225 nM	
MTSP-1 protease domain I41D/F99L/C122S/G151N/Q192T/D217E (enzyme) VVGGTDADEGEWPWQVSLHALGQGHDCGASLISPNWLVSAAHCYIDDRGFRYSDPTQWTAFLGLHDQSQRSAPGVQERRLKRIISHPFFNDFTLDYDIALLELEKPAEYSSMVRPISLPDASHVFPAGKAIWVTGWGHTQYGGTNALILQKGEIRVINQTTCENLLPQQITPRMMCVGFLSGGVDSCTGDSGGPLSSVEADGRIFQAGVVSWGEGCAQRNKPGVYTRLPLFRDWIKENTGV	22 nM	
MTSP-1 protease domain I41D/D96E/C122S/G151N/Q192T (enzyme) VVGGTDADEGEWPWQVSLHALGQGHDCGASLISPNWLVSAAHCYIDDRGFRYSDPTQWTAFLGLHDQSQRSAPGVQERRLKRIISHPFFNEFTFDYDIALLELEKPAEYSSMVRPISLPDASHVFPAGKAIWVTGWGHTQYGGTNALILQKGEIRVINQTTCENLLPQQITPRMMCVGFLSGGVDSCTGDSGGPLSSVEADGRIFQAGVVSWGDGCAQRNKPGVYTRLPLFRDWIKENTGV	78.8 nM	
MTSP-1 protease domain I41D/F99L/C122S/I136M/G151N/Q192T/D217L/K224R (enzyme) VVGGTDADEGEWPWQVSLHALGQGHDCGASLISPNWLVSAAHCYIDDRGFRYSDPTQWTAFLGLHDQSQRSAPGVQERRLKRIISHPFFNDFTLDYDIALLELEKPAEYSSMVRPISLPDASHVFPAGKAMWVTGWGHTQYGGTNALILQKGEIRVINQTTCENLLPQQITPRMMCVGFLSGGVDSCTGDSGGPLSSVEADGRIFQAGVVSWGLGCAQRNRPGVYTRLPLFRDWIKENTGV	32.2 nM	
MTSP-1 protease domain I41D/D96E/F99L/C122S/G151N/Q192T (enzyme) VVGGTDADEGEWPWQVSLHALGQGHDCGASLISPNWLVSAAHCYIDDRGFRYSDPTQWTAFLGLHDQSQRSAPGVQERRLKRIISHPFFNEFTLDYDIALLELEKPAEYSSMVRPISLPDASHVFPAGKAIWVTGWGHTQYGGTNALILQKGEIRVINQTTCENLLPQQITPRMMCVGFLSGGVDSCTGDSGGPLSSVEADGRIFQAGVVSWGDGCAQRNKPGVYTRLPLFRDWIKENTGV	51.5 nM	
MTSP-1 protease domain D96E/C122S/G151N/Q192T (enzyme) VVGGTDADEGEWPWQVSLHALGQGHICGASLISPNWLVSAAHCYIDDRGFRYSDPTQWTAFLGLHDQSQRSAPGVQERRLKRIISHPFFNEFTFDYDIALLELEKPAEYSSMVRPISLPDASHVFPAGKAIWVTGWGHTQYGGTNALILQKGEIRVINQTTCENLLPQQITPRMMCVGFLSGGVDSCTGDSGGPLSSVEADGRIFQAGVVSWGDGCAQRNKPGVYTRLPLFRDWIKENTGV	298 nM	
MTSP-1 protease domain I41D/D96E/F99L/C122S/G151N/Q192T/D217E (enzyme) VVGGTDADEGEWPWQVSLHALGQGHDCGASLISPNWLVSAAHCYIDDRGFRYSDPTQWTAFLGLHDQSQRSAPGVQERRLKRIISHPFFNEFTLDYDIALLELEKPAEYSSMVRPISLPDASHVFPAGKAIWVTGWGHTQYGGTNALILQKGEIRVINQTTCENLLPQQITPRMMCVGFLSGGVDSCTGDSGGPLSSVEADGRIFQAGVVSWGEGCAQRNKPGVYTRLPLFRDWIKENTGV	27.6 nM	
MTSP-1 protease domain I41D/C122S/G151N/Q192T/D217E (enzyme) VVGGTDADEGEWPWQVSLHALGQGHDCGASLISPNWLVSAAHCYIDDRGFRYSDPTQWTAFLGLHDQSQRSAPGVQERRLKRIISHPFFNDFTFDYDIALLELEKPAEYSSMVRPISLPDASHVFPAGKAIWVTGWGHTQYGGTNALILQKGEIRVINQTTCENLLPQQITPRMMCVGFLSGGVDSCTGDSGGPLSSVEADGRIFQAGVVSWGEGCAQRNKPGVYTRLPLFRDWIKENTGV	34.2 nM	
MTSP-1 protease domain I41D/F99L/M117T/C122S/G151N/Q192T/A204D/D217E (enzyme) VVGGTDADEGEWPWQVSLHALGQGHDCGASLISPNWLVSAAHCYIDDRGFRYSDPTQWTAFLGLHDQSQRSAPGVQERRLKRIISHPFFNDFTLDYDIALLELEKPAEYSSTVRPISLPDASHVFPAGKAIWVTGWGHTQYGGTNALILQKGEIRVINQTTCENLLPQQITPRMMCVGFLSGGVDSCTGDSGGPLSSVEDDGRIFQAGVVSWGEGCAQRNKPGVYTRLPLFRDWIKENTGV	25.3 nM	
MTSP-1 protease domain I41D/F99L/C122S/G151N (enzyme) VVGGTDADEGEWPWQVSLHALGQGHDCGASLISPNWLVSAAHCYIDDRGFRYSDPTQWTAFLGLHDQSQRSAPGVQERRLKRIISHPFFNDFTLDYDIALLELEKPAEYSSMVRPISLPDASHVFPAGKAIWVTGWGHTQYGGTNALILQKGEIRVINQTTCENLLPQQITPRMMCVGFLSGGVDSCQGDSGGPLSSVEADGRIFQAGVVSWGDGCAQRNKPGVYTRLPLFRDWIKENTGV	16.9 nM	
MTSP-1 protease domain I41D/F60eI/D96E/F99L/C122S/G151N/Q192T (enzyme) VVGGTDADEGEWPWQVSLHALGQGHDCGASLISPNWLVSAAHCYIDDRGIRYSDPTQWTAFLGLHDQSQRSAPGVQERRLKRIISHPFFNEFTLDYDIALLELEKPAEYSSMVRPISLPDASHVFPAGKAIWVTGWGHTQYGGTNALILQKGEIRVINQTTCENLLPQQITPRMMCVGFLSGGVDSCTGDSGGPLSSVEADGRIFQAGVVSWGDGCAQRNKPGVYTRLPLFRDWIKENTGV	47.9 nM	
MTSP-1 I41S/D60bT/F60eS/Y60gW/D96K/F97G/ins97aV/T98P/F99L/C122S/G151H/Q175L/Q192D (enzyme) VVGGTDADEGEWPWQVSLHALGQGHSCGASLISPNWLVSAAHCYIDTRGSRWSDPTQWTAFLGLHDQSQRSAPGVQERRLKRIISHPFFNKGVPLDYDIALLELEKPAEYSSMVRPISLPDASHVFPAGKAIWVTGWGHTQYGGTHALILQKGEIRVINQTTCENLLPQLITPRMMCVGFLSGGVDSCDGDSGGPLSSVEADGRIFQAGVVSWGDGCAQRNKPGVYTRLPLFRDWIKENTGV		17.1 nM
MTSP-1 Q38H/D60bT/F60eS/Y60gW/D96K/F97G/ins97aV/T98P/F99L/C122S/G151H/Q175L/Q192D (enzyme) VVGGTDADEGEWPWQVSLHALGHGHICGASLISPNWLVSAAHCYIDTRGSRWSDPTQWTAFLGLHDQSQRSAPGVQERRLKRIISHPFFNKGVPLDYDIALLELEKPAEYSSMVRPISLPDASHVFPAGKAIWVTGWGHTQYGGTHALILQKGEIRVINQTTCENLLPQLITPRMMCVGFLSGGVDSCDGDSGGPLSSVEADGRIFQAGVVSWGDGCAQRNKPGVYTRLPLFRDWIKENTGV		215 nM

Continued, values first:

EC50 hC3 cleavage	EC50 of hC3 cleavage	Binder
64.3 nM		MTSP-1 protease domain I41S/F99L/C122S/Q175P/Q192V (enzyme) VVGGTDADEGEWPWQVSLHALGQGHSCGASLISPNWLVSAAHCYIDDRGFRYSDPTQWTAFLGLHDQSQRSAPGVQERRLKRIISHPFFNDFTLDYDIALLELEKPAEYSSMVRPISLPDASHVFPAGKAIWVTGWGHTQYGGTGALILQKGEIRVINQTTCENLLPQPITPRMMCVGFLSGGVDSCVGDSGGPLSSVEADGRIFQAGVVSWGDGCAQRNKPGVYTRLPLFRDWIKENTGV
13.9 nM		MTSP-1 protease domain I41S/F99L/C122S/G151N/Q175P (enzyme) VVGGTDADEGEWPWQVSLHALGQGHSCGASLISPNWLVSAAHCYIDDRGFRYSDPTQWTAFLGLHDQSQRSAPGVQERRLKRIISHPFFNDFTLDYDIALLELEKPAEYSSMVRPISLPDASHVFPAGKAIWVTGWGHTQYGGTNALILQKGEIRVINQTTCENLLPQPITPRMMCVGFLSGGVDSCQGDSGGPLSSVEADGRIFQAGVVSWGDGCAQRNKPGVYTRLPLFRDWIKENTGV
288 nM		MTSP-1 protease domain Y59F/C122S/G151N/Q192T (enzyme) VVGGTDADEGEWPWQVSLHALGQGHICGASLISPNWLVSAAHCFIDDRGFRYSDPTQWTAFLGLHDQSQRSAPGVQERRLKRIISHPFFNDFTFDYDIALLELEKPAEYSSMVRPISLPDASHVFPAGKAIWVTGWGHTQYGGTNALILQKGEIRVINQTTCENLLPQQITPRMMCVGFLSGGVDSCTGDSGGPLSSVEADGRIFQAGVVSWGDGCAQRNKPGVYTRLPLFRDWIKENTGV
414 nM		MTSP-1 protease domain I41D/Y59F/F99L/C122S/G151N/Q192T/V213A (enzyme) VVGGTDADEGEWPWQVSLHALGQGHDCGASLISPNWLVSAAHCFIDDRGFRYSDPTQWTAFLGLHDQSQRSAPGVQERRLKRIISHPFFNDFTLDYDIALLELEKPAEYSSMVRPISLPDASHVFPAGKAIWVTGWGHTQYGGTNALILQKGEIRVINQTTCENLLPQQITPRMMCVGFLSGGVDSCTGDSGGPLSSVEADGRIFQAGVASWGDGCAQRNKPGVYTRLPLFRDWIKENTGV
20 nM		MTSP-1 protease domain I41E/F99L/C122S/G151N/Q175G (enzyme) VVGGTDADEGEWPWQVSLHALGQGHECGASLISPNWLVSAAHCYIDDRGFRYSDPTQWTAFLGLHDQSQRSAPGVQERRLKRIISHPFFNDFTLDYDIALLELEKPAEYSSMVRPISLPDASHVFPAGKAIWVTGWGHTQYGGTNALILQKGEIRVINQTTCENLLPQGITPRMMCVGFLSGGVDSCQGDSGGPLSSVEADGRIFQAGVVSWGDGCAQRNKPGVYTRLPLFRDWIKENTGV
33.9 nM		MTSP-1 protease domain I41E/F99L/C122S/Q175G/Q192T (enzyme) VVGGTDADEGEWPWQVSLHALGQGHECGASLISPNWLVSAAHCYIDDRGFRYSDPTQWTAFLGLHDQSQRSAPGVQERRLKRIISHPFFNDFTLDYDIALLELEKPAEYSSMVRPISLPDASHVFPAGKAIWVTGWGHTQYGGTGALILQKGEIRVINQTTCENLLPQGITPRMMCVGFLSGGVDSCTGDSGGPLSSVEADGRIFQAGVVSWGDGCAQRNKPGVYTRLPLFRDWIKENTGV
37.6 nM		MTSP-1 protease domain I41D/G43A/F99L/C122S/G151N/Q192T/P232S/K239R (enzyme) VVGGTDADEGEWPWQVSLHALGQGHDCAASLISPNWLVSAAHCYIDDRGFRYSDPTQWTAFLGLHDQSQRSAPGVQERRLKRIISHPFFNDFTLDYDIALLELEKPAEYSSMVRPISLPDASHVFPAGKAIWVTGWGHTQYGGTNALILQKGEIRVINQTTCENLLPQQITPRMMCVGFLSGGVDSCTGDSGGPLSSVEADGRIFQAGVVSWGDGCAQRNKPGVYTRLSLFRDWIRENTGV
45 nM		MTSP-1 protease domain I41D/G43A/D96E/F99L/C122S/G151N/Q192T (enzyme) VVGGTDADEGEWPWQVSLHALGQGHDCAASLISPNWLVSAAHCYIDDRGFRYSDPTQWTAFLGLHDQSQRSAPGVQERRLKRIISHPFFNEFTLDYDIALLELEKPAEYSSMVRPISLPDASHVFPAGKAIWVTGWGHTQYGGTNALILQKGEIRVINQTTCENLLPQQITPRMMCVGFLSGGVDSCTGDSGGPLSSVEADGRIFQAGVVSWGDGCAQRNKPGVYTRLPLFRDWIKENTGV
